This note sets out measurements from article PMC11112752 (Biochemistry, 2024).

The target in series [1] is T1, SCOV1 nsp1 (SARS coronavirus 1 (Urbani strain), UniProt P0C6X7 1-180). The series is described as follows: EMSA; prefolded RNA; S and L complexes, n=4. Conditions: protein: recombinant; tags: expressed as GST fusion (pGEX); untagged 19 kDa form described, tag state in EMSA not explicit; label: biotin; hairpin. (In EMSA bound probe runs differently from free probe, usually more slowly.)

The target of series [2] is T2, SCOV2 nsp1 (SARS coronavirus 2, UniProt P0DTD1 1-180). The series is described as follows: EMSA. Conditions: protein: recombinant; tags: expressed as GST fusion (pGEX); label: biotin; hairpin.
Series [3] deals with the molecule itself. The series is described as follows: pull-down.
The target of series [4] is T1, SCOV1 nsp1. Nature of the series: EMSA; 7 uM nsp1; slow-moving complex. Particulars: protein: recombinant; tags: expressed as GST fusion (pGEX); untagged 19 kDa form described, tag state in EMSA not explicit; label: biotin; hairpin.
Series [5] concerns the target T2, SCOV2 nsp1. Nature of the series: EMSA; 7 uM nsp1. Particulars: protein: recombinant; tags: expressed as GST fusion (pGEX); label: biotin; hairpin.
The target in series [6] is T1, SCOV1 nsp1. Nature of the series: EMSA. Particulars: protein: recombinant; tags: expressed as GST fusion (pGEX); untagged 19 kDa form described, tag state in EMSA not explicit; label: biotin; stem-loop (-6.83 kcal/mol, RNAfold).

B1: SCOV1-SL1 (structured_RNA)
RNA: AUAUUAGGUUUUUACCUACCCAGGAAAAGCCAACCAACCUCGAU
For the molecule B1, the Kd (as a rule, the constant that tells how readily two partners part at equilibrium) in series [1] came to 1400 ± 120 nM. Besides, the binding result in series [2] is recorded as “binds”.

B2: SARS coronavirus 1 nonstructural protein 1 (nsp1) (natural protein)
chain: MESLVLGVNEKTHVQLSLPVLQVRDVLVRGFGDSVEEALSEAREHLKNGTCGLVELEKGVLPQLEQPYVFIKRSDALSTNHGHKVVELVAEMDGIQYGRSGITLGVLVPHVGETPIAYRNVLLRKNGNKGAGGHSYGIDLKSYDLGDELGTDPIEDYEQNWNTKHGSGALRELTRELNGG
With B2, the binding result in series [3] is reported as “binds”.

B3: SCOV2-SL1 (structured_RNA)
RNA: AUUAAAGGUUUAUACCUUCCCAGGUAACAAAACCAACCAACUUUC
Take B3: the binding result in series [4] and in series [5] was “binds” each time.

B4: control RNA (EMSA kit) (structured_RNA)
RNA: UCCUGCUUCAACAGUGCUUGGACGGAAC
As to B4, the binding result in series [6] was “no binding”.
